The target of experiment [1] is His-tagged human EGFR extracellular domain (expressed and purified in-house) (human) (UniProt P00533). As to the kind of experiment: BLI, antibody on AHC tips, monomeric EGFR ECD in solution, 1:1 fit. For orientation: BLI is a label-free optical method that tracks binding on a fibre tip over time.
The target in experiment [2] is His-tagged human HER3 extracellular domain (Acro ER3-H5223) (human) (UniProt P21860). As to the kind of experiment: BLI, antibody on AHC tips, monomeric HER3 ECD in solution, 1:1 fit.

B1: SI-1C4 (duligotuzumab), 2-in-1 bispecific antibody against EGFR and HER3 (bispecific antibody, from a related filing, V domains shown)
VH: EVQLVESGGGLVQPGGSLRLSCAASGFTLSGDWIHWVRQAPGKGLEWVGEISAAGGYTDYADSVKGRFTISADTSKNTAYLQMNSLRAEDTAVYYCARESRVSFEAAMDYWGQGTLVTVSS
VL: DIQMTQSPSSLSASVGDRVTITCRASQNIATDVAWYQQKPGKAPKLLIYSASFLYSGVPSRFSGSGSGTDFTLTISSLQPEDFATYYCQQSEPEPYTFGQGTKVEIKR
In the case of B1, in experiment [1], the equilibrium dissociation constant (Kd) turned out to be 14.6 nM, the koff was determined as 0.00438 s⁻¹ and the on-rate (kon) worked out at 300000 M⁻¹ s⁻¹. In addition, in experiment [2], the Kd was found to be 4.29 nM, the koff is 0.000877 s⁻¹ and the kon is 205000 M⁻¹ s⁻¹.

The Kd is the constant that tells how readily two partners part at equilibrium. In general, koff refers to the first-order rate constant of dissociation. The low end stands for slow dissociation, the high end for fast dissociation. For orientation: kon means the second-order rate constant of association.

For the origin of these results see US20230374157A1.
